From paper doi:10.1101/2024.05.01.592117 come the findings set out here.

Assay [1] deals with 40S small ribosomal subunit (salt-washed, purified) (human) (UniProt P23396). In words: fluorescence polarisation. In general terms: Polarisation of emitted light reports the rotation of a fluorescent probe.
Assay [2] concerns the target 43S preinitiation complex (40S + eIFs 1, 1A, 5, 3j, eIF2-TC and eIF3) (human) (UniProt P23396). In words: fluorescence polarisation.
Assay [3] shares this target. Description: native gel or EMSA. For orientation: Mobility shift assays separate free from complexed probe on a gel.

fluorescence-labeled Pdcd4-NTD (FL-Pdcd4-NTD, residues 1-156), sequence (Q53EL6 1-156): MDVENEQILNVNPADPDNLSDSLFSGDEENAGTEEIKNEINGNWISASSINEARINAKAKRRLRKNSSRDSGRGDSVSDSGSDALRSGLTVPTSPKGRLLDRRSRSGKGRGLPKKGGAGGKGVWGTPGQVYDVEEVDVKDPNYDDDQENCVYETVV
fluorescence-labeled full-length Pdcd4 (FL-Pdcd4), sequence (Q53EL6 whole entry): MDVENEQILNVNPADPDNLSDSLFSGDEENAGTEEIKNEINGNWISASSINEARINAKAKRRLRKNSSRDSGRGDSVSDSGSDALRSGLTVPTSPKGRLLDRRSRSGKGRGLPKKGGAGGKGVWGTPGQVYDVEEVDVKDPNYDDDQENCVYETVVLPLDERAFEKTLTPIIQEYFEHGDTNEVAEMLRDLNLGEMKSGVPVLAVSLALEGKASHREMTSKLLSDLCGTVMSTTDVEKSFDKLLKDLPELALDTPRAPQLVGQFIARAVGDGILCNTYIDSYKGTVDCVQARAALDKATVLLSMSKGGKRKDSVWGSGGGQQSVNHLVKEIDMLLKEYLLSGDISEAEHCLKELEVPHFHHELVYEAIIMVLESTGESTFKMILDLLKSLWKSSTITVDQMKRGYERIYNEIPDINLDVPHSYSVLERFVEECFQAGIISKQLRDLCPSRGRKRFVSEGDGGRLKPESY
Pdcd4 (programmed cell death 4), wild type, residues 1-469, sequence (Q53EL6 whole entry, the tested form may be a part): as the sequence (Q53EL6 whole entry) above
Pdcd4-NTD (residues 1-156), unlabeled, sequence (Q53EL6 1-156): as the sequence (Q53EL6 1-156) above

In the case of “Pdcd4 (programmed cell death 4), wild type, residues 1-469 (from UniProt Q53EL6 1-469) (natural protein)”, the inhibitory constant (Ki) (usually a measure of affinity in units of concentration, obtained from inhibition or displacement) in assay [1] worked out at 23 nM. On the same count and under the same terms, with “Pdcd4-NTD (residues 1-156), unlabeled (from UniProt Q53EL6 1-156) (domain or fragment)” the figure was 21 nM. Regarding “fluorescence-labeled Pdcd4-NTD (FL-Pdcd4-NTD, residues 1-156) (from UniProt Q53EL6 1-156) (domain or fragment)”, the figures for the fold reduction in affinity against the 40S alone in assay [1] and in assay [2] were above 10 fold and above 100 fold, respectively. The percent binding compared to the 40S (lane 2) in assay [3] is below 20%. Regarding “fluorescence-labeled full-length Pdcd4 (FL-Pdcd4) (from UniProt Q53EL6 1-469) (natural protein)”, the percent binding compared to the 40S (lane 2) in assay [3] is below 20%.
